Here are results for 25 molecules from patent US20250339569A1 (3B PHARMACEUTICALS, published 2025).

Starred links: 1 amine or outer side, 2 acyl side, 3 side chain; linkers in the order of their positions; H or OH if unused. Positions of bridges follow the written chain, without caps; N, C: chain ends. Non-standard residues stand in square brackets, D forms with d. Groups on a side chain read outwards from the residue. Primed or numbered codes have the meaning given here. ξ: configuration not given here. *: point of attachment. Af3(HySuc) = 3-amino-L-phenylalanine acylated on the ring amine with 2-(3,6-dioxo-1,2,3,6-tetrahydropyridazin-4-yl)acetic acid, O=C(Cc1cc(=O)[nH][nH]c1=O)Nc1cccc(C[C@H](N[*:1])C(=O)[*:2])c1; af3(ac-glu) = lower case: 3-amino-D-phenylalanine, ring amine acylated with N-acetyl-D-glutamic acid, CC(=O)N[C@H](CCC(=O)[*:3])C(=O)Nc1cccc(C[C@@H](N[*:1])C(=O)[*:2])c1; af3(ac-asp) = lower case: 3-amino-D-phenylalanine, ring amine acylated with N-acetyl-D-aspartic acid, CC(=O)N[C@H](CC(=O)[*:3])C(=O)Nc1cccc(C[C@@H](N[*:1])C(=O)[*:2])c1; Af3(MSAc) = 3-aminophenylalanine with 2-methanesulfonylacetyl on the ring amine, CS(=O)(=O)CC(=O)Nc1cccc(C[C@H](N[*:1])C(=O)[*:2])c1; Af3(Iva) = 3-aminophenylalanine with isovaleryl on the ring amine, CC(C)CC(=O)Nc1cccc(C[C@H](N[*:1])C(=O)[*:2])c1; Af3(Ac-Asp) = 3-aminophenylalanine acylated on the ring amine with N-acetyl-aspartic acid; DOTA(In) = O=C1CN2CCN3CCN(CC(=O)*)CCN(CC2)CC(=O)[O][In]([O]1)[O]C(=O)C3; APAc″ = 2-(4-(amino)piperidin-1-yl)acetic acid, NC1CCN(CC(=O)*)CC1; DOTA = O=C(O)CN1CCN(CC(=O)O)CCN(CC(=O)*)CCN(CC(=O)O)CC1; Phe(3,4-Cl2) = N[C@@H](Cc1ccc(Cl)c(Cl)c1)C(=O)O; Phe(3-CF3) = N[C@@H](Cc1cccc(C(F)(F)F)c1)C(=O)O; ξTrp(7-Me) = Cc1cccc2c(CC(N)C(=O)O)c[nH]c12; ξTrp(1-Me) = Cn1cc(CC(N)C(=O)O)c2ccccc21; Ttds(3) = NCCCOCCOCCOCCCNC(=O)CCC(=O)*; mXylylene = c1cc(C[*:1])cc(C[*:2])c1; Bta = N[C@@H](Cc1csc2ccccc12)C(=O)O; Orn(Me2) = CN(C)CCC[C@H](N)C(=O)O; Propanoyl(3-OH) = O=C(CCO)*; hSer = N[C@@H](CCO)C(=O)O; Nle = CCCC[C@H](N)C(=O)O; APAc = not defined here; Ac5c = NC1(C(=O)O)CCCC1; Apr = not defined here; Dap = NC[C@H](N)C(=O)O; Ttds″ = Ttds spacer; Sar = CNCC(=O)O

Experiment [1] has as its target T1, Fc-fusion protein of human carbonic anhydrase IX (human, UniProt Q16790 38-414). In words: SPR, captured hCAIX-Fc; pKD category A: >8.0. The procedure: (§1) Stock solutions of test compounds were prepared by dissolving each compound in DMSO. DMSO stock solution were diluted 1:1000 in Running Buffer without DMSO. […] SPR binding analyses were performed in Single Cycle Kinetic (SCK) mode at 25° C.
(§2) For each test compound, SPR raw data in the form of resonance units (RU) were plotted as sensorgrams using the Biacore™ T200 control software. The signal from the blank sensorgram was subtracted from that of the test compound sensorgram (blank corrected). The blank corrected sensorgram was corrected for baseline drift by subtracting the sensorgram of a SCK run without the test compound (running buffer only). […] Raw data and fit results were imported as text files in IDBS. The pKD value (negative decadic logarithm of dissociation constant) was calculated in the IDBS excel template.

Experiment [2] addresses T1, Fc-fusion protein of human carbonic …. In words: SPR, captured hCAIX-Fc; t1/2 category B: 5.1-15.0 min. The procedure: as §1, §2
The target is the same in experiment [3]. The experiment can be described thus: SPR, captured hCAIX-Fc; t1/2 category C: 2.1-5.0 min. The procedure: as §1, §2

B1: 3BP-4363 (peptide)
peptide: {DOTA-APAc″}-VYCE[dP]D[Af3(Ac-Asp)]LTWSC-NH2
modifications: linker 3-12 via mXylylene
Consider B1, for which the pKD in experiment [1] was > 8 pkd. Moreover, in experiment [2], the “t1/2 (half-life of the complex, SPR)” value is 5.1 to 15 min.

B2: 3BP-4322 (peptide)
peptide: {DOTA-APAc″}-VYCE[dP]D[Af3(HySuc)]LTWSC-NH2
modifications: linker 3-12 via mXylylene
In the case of B2, the pKD in experiment [1] was > 8 pkd. In addition, the “t1/2 (half-life of the complex, SPR)” value in experiment [2] was in the range of 5.1 to 15 min.

B3: 3BP-4101 (peptide)
peptide: {DOTA-APAc}-VYC[hSer][dP]DWLTWSC-NH2
modifications: linker 3-12 via mXylylene; reading uncertain
With B3, the pKD in experiment [1] was > 8 pkd. Besides, the “t1/2 (half-life of the complex, SPR)” value in experiment [2] is 5.1 to 15 min.

B4: 3BP-3867 (peptide)
peptide: {DOTA-APAc″}-YCE[dP]DWLTWSC-NH2
modifications: linker 2-11 via mXylylene
Consider B4, for which the pKD in experiment [1] was > 8 pkd. Further, in experiment [3], the “t1/2 (half-life of the complex, SPR)” value is 2.1 to 5 min.

B5: 3BP-4242 (peptide)
peptide: {DOTA-APAc″}-VYCE[dP]D[Af3(MSAc)]LTWSC-NH2
modifications: linker 3-12 via mXylylene
Turning to B5, the pKD in experiment [1] is > 8 pkd. For the same molecule, in experiment [2], the “t1/2 (half-life of the complex, SPR)” value was 5.1 to 15 min.

B6: 3BP-3906 (peptide)
peptide: {DOTA}-YCE[dP]DWLTWSC-NH2
modifications: linker 2-11 via mXylylene; also: ['indium complexed by DOTA']
As for B6, the pKD in experiment [1] was > 8 pkd. In addition, the “t1/2 (half-life of the complex, SPR)” value in experiment [3] was in the range of 2.1 to 5 min.

B7: 3BP-4053 (peptide)
peptide: {DOTA(In)}-YCE[dP]KWLEWSC-NH2
modifications: linker 2-11 via mXylylene; lactam 5-8; also: indium complexed by DOTA
Regarding B7, in experiment [1], the pKD is > 8 pkd. In addition, the “t1/2 (half-life of the complex, SPR)” value in experiment [2] lay within 5.1 to 15 min.

B8: 3BP-3311 (peptide)
peptide: Ac-VYCE[Sar]D[Bta]LTWQC-NH2
modifications: linker 3-12 via mXylylene
SMILES: CC(=O)N[C@H](C(=O)N[C@@H](Cc1ccc(O)cc1)C(=O)N[C@H]1CSCc2cccc(c2)CSC[C@@H](C(N)=O)NC(=O)[C@H](CCC(N)=O)NC(=O)[C@H](Cc2c[nH]c3ccccc23)NC(=O)[C@H]([C@@H](C)O)NC(=O)[C@H](CC(C)C)NC(=O)[C@H](Cc2csc3ccccc23)NC(=O)[C@H](CC(=O)O)NC(=O)CN(C)C(=O)[C@H](CCC(=O)O)NC1=O)C(C)C
As for B8, the pKD in experiment [1] was > 8 pkd. Also, the “t1/2 (half-life of the complex, SPR)” value in experiment [3] was in the range of 2.1 to 5 min.

B9: 3BP-4144 (peptide)
peptide: {DOTA-APAc″}-VYCE[dP]D[ξTrp(1-Me)]LTWSC-NH2
modifications: linker 3-12 via mXylylene; not fully specified
Take B9: the pKD in experiment [1] is > 8 pkd. The “t1/2 (half-life of the complex, SPR)” value in experiment [2] was in the range of 5.1 to 15 min.

B10: 3BP-4253 (peptide)
peptide: {DOTA}-DCE[dP]DWLTW[Dap]C-NH2
modifications: lactam 10-1; linker 2-11 via mXylylene
SMILES: CC(C)C[C@@H]1NC(=O)[C@H](Cc2c[nH]c3ccccc23)NC(=O)[C@H](CC(=O)O)NC(=O)[C@H]2CCCN2C(=O)[C@H](CCC(=O)O)NC(=O)[C@@H]2CSCc3cccc(c3)CSC[C@@H](C(N)=O)NC(=O)[C@H](CNC(=O)C[C@H](NC(=O)CN3CCN(CC(=O)O)CCN(CC(=O)O)CCN(CC(=O)O)CC3)C(=O)N2)NC(=O)[C@H](Cc2c[nH]c3ccccc23)NC(=O)[C@H]([C@@H](C)O)NC1=O
As for B10, the pKD in experiment [1] is > 8 pkd. For the same molecule, the “t1/2 (half-life of the complex, SPR)” value in experiment [2] was in the range of 5.1 to 15 min.

B11: 3BP-4135 (peptide)
peptide: {DOTA-APAc}-VYCE[dP]D[Phe(3-CF3)]LTWSC-NH2
modifications: linker 3-12 via mXylylene; not fully specified; reading uncertain
B11: in experiment [1], the pKD was > 8 pkd. Moreover, the “t1/2 (half-life of the complex, SPR)” value in experiment [2] is 5.1 to 15 min.

B12: 3BP-4362 (peptide)
peptide: {DOTA-APAc″}-VYCE[dP]D[af3(ac-glu)]LTWSC-NH2
modifications: linker 3-12 via mXylylene; not fully specified
On to B12, for which the pKD in experiment [1] is > 8 pkd. Besides, the “t1/2 (half-life of the complex, SPR)” value in experiment [2] fell in the range of 5.1 to 15 min.

B13: 3BP-3870 (peptide)
peptide: {DOTA-Ttds(3)}-[Nle]YCE[dP]DWLTWSC-NH2
modifications: linker 3-12 via mXylylene
On to B13, for which the pKD in experiment [1] was > 8 pkd. The “t1/2 (half-life of the complex, SPR)” value in experiment [2] was 5.1 to 15 min.

B14: 3BP-3313 (peptide)
peptide: Ac-VYCE[Sar]DWLTWAC-NH2
modifications: linker 3-12 via mXylylene
SMILES: CC(=O)N[C@H](C(=O)N[C@@H](Cc1ccc(O)cc1)C(=O)N[C@H]1CSCc2cccc(c2)CSC[C@@H](C(N)=O)NC(=O)[C@H](C)NC(=O)[C@H](Cc2c[nH]c3ccccc23)NC(=O)[C@H]([C@@H](C)O)NC(=O)[C@H](CC(C)C)NC(=O)[C@H](Cc2c[nH]c3ccccc23)NC(=O)[C@H](CC(=O)O)NC(=O)CN(C)C(=O)[C@H](CCC(=O)O)NC1=O)C(C)C
Take B14: the pKD in experiment [1] was > 8 pkd. Also, the “t1/2 (half-life of the complex, SPR)” value in experiment [3] was 2.1 to 5 min.

B15: 3BP-4096 (peptide)
peptide: {DOTA-APAc}-VYC[Orn(Me2)][dP]DWLTWSC-NH2
modifications: linker 3-12 via mXylylene; reading uncertain
Take B15: the pKD in experiment [1] is > 8 pkd. Further, in experiment [2], the “t1/2 (half-life of the complex, SPR)” value was 5.1 to 15 min.

B16: 3BP-4095 (peptide)
peptide: {DOTA-APAc}-V[Orn(Me2)]CE[dP]DWLTWSC-NH2
modifications: linker 3-12 via mXylylene; reading uncertain
As for B16, the pKD in experiment [1] is > 8 pkd. Further, the “t1/2 (half-life of the complex, SPR)” value in experiment [2] lay in the range of 5.1 to 15 min.

B17: 3BP-4158 (peptide)
peptide: {DOTA-APAc″}-VYCE[dP]D[ξTrp(7-Me)]LTWSC-NH2
modifications: linker 3-12 via mXylylene; not fully specified
B17: the pKD in experiment [1] was > 8 pkd. Besides, in experiment [2], the “t1/2 (half-life of the complex, SPR)” value fell in the range of 5.1 to 15 min.

B18: 3BP-3842 (peptide)
peptide: {Propanoyl(3-OH)}-YCE[dP]DWLTWE([Apr-DOTA])C-NH2
modifications: linker 2-11 via mXylylene; reading uncertain
Consider B18, for which the pKD in experiment [1] is > 8 pkd. Moreover, the “t1/2 (half-life of the complex, SPR)” value in experiment [3] was in the range of 2.1 to 5 min.

B19: 3BP-4364 (peptide)
peptide: {DOTA-APAc″}-VYCE[dP]D[af3(ac-asp)]LTWSC-NH2
modifications: linker 3-12 via mXylylene; not fully specified
B19: the pKD in experiment [1] is > 8 pkd. The “t1/2 (half-life of the complex, SPR)” value in experiment [2] was 5.1 to 15 min.

B20: 3BP-3058 (peptide)
peptide: Ac-VYCEGDWLTWAC-NH2
modifications: linker 3-12 via mXylylene
SMILES: CC(=O)N[C@H](C(=O)N[C@@H](Cc1ccc(O)cc1)C(=O)N[C@H]1CSCc2cccc(c2)CSC[C@@H](C(N)=O)NC(=O)[C@H](C)NC(=O)[C@H](Cc2c[nH]c3ccccc23)NC(=O)[C@H]([C@@H](C)O)NC(=O)[C@H](CC(C)C)NC(=O)[C@H](Cc2c[nH]c3ccccc23)NC(=O)[C@H](CC(=O)O)NC(=O)CNC(=O)[C@H](CCC(=O)O)NC1=O)C(C)C
As to B20, in experiment [1], the pKD is > 8 pkd. Moreover, in experiment [3], the “t1/2 (half-life of the complex, SPR)” value was 2.1 to 5 min.

B21: 3BP-3272 (peptide)
peptide: {DOTA-Ttds″}-VYCEGDWLTWAC-NH2
modifications: linker 3-12 via mXylylene; not fully specified
B21: the pKD in experiment [1] was > 8 pkd. For the same molecule, in experiment [3], the “t1/2 (half-life of the complex, SPR)” value lay within 2.1 to 5 min.

B22: 3BP-4133 (peptide)
peptide: {DOTA-APAc}-VYCE[dP]D[Phe(3,4-Cl2)]LTWSC-NH2
modifications: linker 3-12 via mXylylene; not fully specified; reading uncertain
With B22, the pKD in experiment [1] is > 8 pkd. Further, in experiment [2], the “t1/2 (half-life of the complex, SPR)” value fell in the range of 5.1 to 15 min.

B23: 3BP-3587 (peptide)
peptide: {DOTA-APAc}-VYCE[dP]DW[Ac5c]TWSC-NH2
modifications: linker 3-12 via mXylylene; reading uncertain
For B23, in experiment [1], the pKD is > 8 pkd. Further, the “t1/2 (half-life of the complex, SPR)” value in experiment [3] was 2.1 to 5 min.

B24: 3BP-4236 (peptide)
peptide: {DOTA-APAc″}-VYCE[dP]D[Af3(Iva)]LTWSC-NH2
modifications: linker 3-12 via mXylylene
For B24, in experiment [1], the pKD is > 8 pkd. Besides, in experiment [2], the “t1/2 (half-life of the complex, SPR)” value fell in the range of 5.1 to 15 min.

B25: 3BP-3271 (peptide)
peptide: {DOTA-Ttds″}-VYCE[Sar]DWLTWQC-NH2
modifications: linker 3-12 via mXylylene; not fully specified
For the molecule B25, the pKD in experiment [1] was > 8 pkd. For the same molecule, in experiment [3], the “t1/2 (half-life of the complex, SPR)” value lay within 2.1 to 5 min.
